Measured values from the FLAb antibody collection (doi:10.7554/elife.23156).

B1: scFv; the commonest letter at each place (parent)
chain 1: EVKLDETGGGLVQPGRPMKLSCVASGFTFSDYWMNWVRQSPEKGLEWVAQIRNKPYNYETYYSDSVKGRFTISRDDSKSSVYLQMNNLRVEDMGIYYCTGSYYGMDYWGQGTSVTVS
chain 2: DVVMTQTPLSLPVSLGDQASISCRSSQSLVHSNGNTYLRWYLQKPGQSPKVLIYKVSNRFSGVPDRFSGSGSGTDFTLKISRVEAEDLGVYFCSQSTHVPWTFGGGTKLEIK

How the values were obtained:
fluorescein = variants of: B1; experiment: Kd (Tite-Seq); conditions: with fluorescein; format: scFv 4-4-20, heavy + light
[1] = variants of: B1; experiment: yeast surface expression (ratio to wild type); higher = more expressed; conditions: format: scFv 4-4-20, heavy + light

Row | Variant | Kd (fluorescein) | yeast surface expression [1]
1 | chain 1 EVKLDETGGGLVQPGRPMKLSCVASGFTSHDYWMNWVRQSPEKGLEWVAQIRNKPYNYETYYSDSVKGRFTISRDDSKSSVYLQMNNLRVEDMGIYYCTGSYYGMDYWGQGTSVTVS chain 2 DVVMTQTPLSLPVSLGDQASISCRSSQSLVHSNGNTYLRWYLQKPGQSPKVLIYKVSNRFSGVPDRFSGSGSGTDFTLKISRVEAEDLGVYFCSQSTHVPWTFGGGTKLEIK [chain 1 F29S S30H] | 832 nM | 0.945
2 | chain 1 EVKLDETGGGLVQPGRPMKLSCVASGFTSSDYWMNWCRQSPEKGLEWVAQIRNKPYNYETYYSDSVKGRFTISRDDSKSSVYLQMNNLRVEDMGIYYCTGSYYGMDYWGQGTSVTVS chain 2 DVVMTQTPLSLPVSLGDQASISCRSSQSLVHSNGNTYLRWYLQKPGQSPKVLIYKVSNRFSGVPDRFSGSGSGTDFTLKISRVEAEDLGVYFCSQSTHVPWTFGGGTKLEIK [chain 1 F29S V37C] | 6.38 nM | 0.758
3 | chain 1 EVKLDETGGGLVQPGRPMKLSCVASGFTSSDYCMNWVRQSPEKGLEWVAQIRNKPYNYETYYSDSVKGRFTISRDDSKSSVYLQMNNLRVEDMGIYYCTGSYYGMDYWGQGTSVTVS chain 2 DVVMTQTPLSLPVSLGDQASISCRSSQSLVHSNGNTYLRWYLQKPGQSPKVLIYKVSNRFSGVPDRFSGSGSGTDFTLKISRVEAEDLGVYFCSQSTHVPWTFGGGTKLEIK [chain 1 F29S W33C] | ≥ 10000 nM | 0.865

Now from value to variant, other results behind:

Row | Kd (fluorescein) | Variant | yeast surface expression [1]
4 | ≥ 10000 nM | chain 1 EVKLDETGGGLVQPGRPMKLSCVASGFTSSDYHMNWVRQSPEKGLEWVAQIRNKPYNYETYYSDSVKGRFTISRDDSKSSVYLQMNNLRVEDMGIYYCTGSYYGMDYWGQGTSVTVS chain 2 DVVMTQTPLSLPVSLGDQASISCRSSQSLVHSNGNTYLRWYLQKPGQSPKVLIYKVSNRFSGVPDRFSGSGSGTDFTLKISRVEAEDLGVYFCSQSTHVPWTFGGGTKLEIK [chain 1 F29S W33H] | 0.724
5 | ≥ 10000 nM | chain 1 EVKLDETGGGLVQPGRPMKLSCVASGFTSSDYWMNQVRQSPEKGLEWVAQIRNKPYNYETYYSDSVKGRFTISRDDSKSSVYLQMNNLRVEDMGIYYCTGSYYGMDYWGQGTSVTVS chain 2 DVVMTQTPLSLPVSLGDQASISCRSSQSLVHSNGNTYLRWYLQKPGQSPKVLIYKVSNRFSGVPDRFSGSGSGTDFTLKISRVEAEDLGVYFCSQSTHVPWTFGGGTKLEIK [chain 1 F29S W36Q] | 0.549
6 | 9.41 nM | chain 1 EVKLDETGGGLVQPGRPMKLSCVASGFTTSDYWMNWVRQSPEKGLEWVAQIRNKPYNYETYYSDSVKGRFTISRDDSKSSVYLQMNNLRVEDMGIYYCTGSYYGMDYWGQGTSVTVS chain 2 DVVMTQTPLSLPVSLGDQASISCRSSQSLVHSNGNTYLRWYLQKPGQSPKVLIYKVSNRFSGVPDRFSGSGSGTDFTLKISRVEAEDLGVYFCSQSTHVPWTFGGGTKLEIK [chain 1 F29T] | 0.981
